The values below come from patent US20040086945A1, “Hairless protein-interacting partner complexes and methods thereto” (The Procter & Gamble Company, priority 2002, published 2004).

T1: mouse HRt (hairless protein aa 490-1182) (Mus musculus, UniProt Q61645)
T1 construct: HR cDNA corresponding to the C-terminal half of HR protein (aa residues 490 to 1182, hereinafter HRt); expressed in transfected cells; host or cells: Saccharomyces cerevisiae PJ69-2A transformed with BD-HRt plasmid, mated with Y187 carrying the human brain cDNA library in pACT2
T1 sequence (Q61645 490-1182): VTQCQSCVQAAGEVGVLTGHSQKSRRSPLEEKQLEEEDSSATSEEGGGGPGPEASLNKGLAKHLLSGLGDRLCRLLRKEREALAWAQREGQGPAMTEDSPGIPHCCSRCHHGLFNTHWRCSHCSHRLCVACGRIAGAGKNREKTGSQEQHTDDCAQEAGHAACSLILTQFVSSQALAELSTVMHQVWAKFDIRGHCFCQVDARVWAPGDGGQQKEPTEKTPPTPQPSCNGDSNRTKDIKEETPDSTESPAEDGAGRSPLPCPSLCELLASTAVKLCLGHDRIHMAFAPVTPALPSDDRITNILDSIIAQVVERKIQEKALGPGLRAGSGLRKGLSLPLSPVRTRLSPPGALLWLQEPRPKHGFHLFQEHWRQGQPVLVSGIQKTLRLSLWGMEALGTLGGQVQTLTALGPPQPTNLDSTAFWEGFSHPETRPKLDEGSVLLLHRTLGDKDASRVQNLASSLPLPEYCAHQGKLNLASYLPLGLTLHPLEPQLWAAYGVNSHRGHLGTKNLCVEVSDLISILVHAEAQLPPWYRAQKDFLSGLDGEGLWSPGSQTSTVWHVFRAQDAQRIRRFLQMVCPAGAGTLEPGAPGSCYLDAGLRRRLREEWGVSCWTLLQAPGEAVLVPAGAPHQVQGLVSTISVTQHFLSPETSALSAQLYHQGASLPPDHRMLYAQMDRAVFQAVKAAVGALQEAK

B1: Human sequence from clone RP4-753, chromosome 21q: human HRt interacting partner, GenBank AL031676, SEQ ID NO:12/13 (protein, listed as Homo sapiens)
chain: TRSSFRSEATPSEPVLVSVHLSVLPARVQPRGMDRARVAVAAGSLAPPVLPPPIQRLRGCSMFYVFLNEDPSDGSSPIPDSGSPSGPRAAPEHPARLPLT
B2: Human vesicle-associated membrane protein 2: human HRt interacting partner, GenBank BC002737, SEQ ID NO:22/23 (protein, listed as Homo sapiens)
chain: QGEGKGDGTGSYREGQGPRQQGGHQEAAAAATVCVASLPPPQHPRQLGLAPLPSLHCTLSLKINFQPCLLSTWWVVGMQFGICSTPST
B3: Human aldolase A: human HRt interacting partner, GenBank M11560, SEQ ID NO:26/27 (protein, listed as Homo sapiens)
chain: VSKAVEHINKTIAPALVSKKLNVTEQEKIDKLMIEMDGTENKSKFGANAILGVSLAVCKAGAVEKGVPLYRHIADLAGNSEVILPVPAFNVINGGFSCCNKLAMHEVHDPPSRCSKLQGSLRIGTE
B4: Human monocyte antigen CD14: human HRt interacting partner, GenBank M86511, SEQ ID NO:14/15 (protein, listed as Homo sapiens)
chain: KRINLISQTKRPDRNMSLSRACPCWNGLLTTIKNLELLLEIVTDKSQEGSQFVKGFGGIGGILRYRVDFQGMEYQGGDDEFFDLDDY
B5: Human small intestine cDNA to mRNA clone HSI10987: human HRt interacting partner, GenBank AK026339, SEQ ID NO:24/25 (protein, listed as Homo sapiens)
chain: CPGRSQGPHCWDAGCSGAPQAQVPSVFSFDFAAVLVLLLYPQELTWTQILGPPWSASSSAFGSGKNSSRTFYSQRQSLSFLCPICISSRRDPP

The target of this data set is T1, mouse HRt (hairless protein aa 490-1182). Kind of data set: Yeast two-hybrid screen of BD-HRt against human brain cDNA library in AD vector, lacZ coloration on QDO-Xgal plates. It counts as cell-based. Conditions: BD-HRt(mouse) x human brain cDNA library in AD-vector. From the text: The present example provides for Hairless Protein (HR) interacting partners (HR-IP) using the yeast two-hybrid technology. […] Yeast cells expressing BD-HRt are mated with yeast cells pretransformed with human brain cDNA library in the activation domain (AD) vector.
Cloning of HRt into GAL4 binding domain (BD) yeast two-hybrid (Y2H) vector: The HRt insert from pET32a-HRt is excised as an Eco RI-Xho I fragment (there is a unique Xho I site just adjacent to HRt insert) and inserted at the Eco RI-Sal I sites of Y2H-BD vector pGBKT7 (Catalog No. K1612-B; a component of Matchmaker two-hybrid System 3 (Catalog No. K1612-1) BD Biosciences Clontech, Palo Alto, Calif.) to obtain pGBKT7-HRt in which HRt is fused in-frame to GAL 4 DNA BD (this plasmid is also designated BD-HRt).
Pretransformed human brain […] cDNA Library Screen for HRt interaction partners: Pretransformed human brain […] high-complexity GAL4 cDNA library that has already been amplified and introduced into yeast strain Y187 (MATα) is used to screen for HRt interacting proteins. […] The library host strain Y187 provides a third reporter gene (lacZ) for optional quantification of signal strength. The protocol as described in Clontech user manual (PT3183-1) is used. Briefly, the library is mixed with PJ69-2A strain that has been transformed with the BD-HRt plasmid in YPD medium containing adenine hemisulfate (0.004%) and kanamycin (0.005%) and incubated for 20-24 h at 30° C. The next day, the mating mixture is plated on Leu, Trp, His TDO that selects for two-hybrid interactions, and then the positive clones are screened for growth on Leu, Trp, His, Ade QDO, which is a more stringent condition for interaction. Colonies that grew well on QDO are also screened for lacZ expression by streaking on QDO-Xgal plates. Based on a visual assessment of colonies for the intensity of blue color, the clones are classified into high (H), medium (M), low (L) or very low (VL) categories.
The positive clones are expected to contain an AD-IP (interacting partner) that interacts with BD-HRt. To characterize IP, the sequence of IP is determined and matched to the human genome database. For this purpose, total DNA is isolated from the positive clones and PCR amplified with […] AD LD (long distance)-insert screening amplimers (Catalog No.9103-1; BD Biosciences Clontech, PaloAlto, Calif.). Reaction is conducted in 50 μl volume for 35 cycles using the conditions recommended with the Advantage2 PCR kit (Catalog No. K1910-1; BD Biosciences Clontech, PaloAlto, Calif.).
For “HUMFGF1A Human fibroblast growth factor (FGF) receptor-1 mRNA: interacting partner nucleic acid, homology in a 3'-untranslated region, GenBank M34641, SEQ ID NO:92”, the “XGAL (rate and intensity of coloration of colonies on Xgal)” value (“XGAL” below) was “VL (VL = Very Low blue in 10 days)”.

Turning to “Human C11 protein: human HRt interacting partner, GenBank X81625, SEQ ID NO:20/21”, the “XGAL” value is on record as “M (M = Medium blue in 3-5 days)”. As for “Human Sphingolipid activator protein: human HRt interacting partner, GenBank M60255, SEQ ID NO:16/17 (PLPPPCLLPLPRPPLLPRLGRVVPLHPLQTSPVTGDCSRPRPRWMRWWTS; listed as Homo sapiens)”, the entry is “M (M = Medium blue in 3-5 days)”; as for “Human Thy-1 glycoprotein: human HRt interacting partner, GenBank AF261093, SEQ ID NO:66/67”, “L (L = Low blue in 5-7 days)”; as for “Human ankyrin repeat containing protein ASB-2: human HRt interacting partner, GenBank AF159164, SEQ ID NO:38/39”, “M (M = Medium blue in 3-5 days)”. Turning to “Human cDNA FLJ20456 fis clone KAT05827: human HRt interacting partner, GenBank AK000463, SEQ ID NO:74/75”, the “XGAL” value is “L/VL”. On to “Human cDNA: FLJ23187 fis, clone: LNG11989: human HRt interacting partner, GenBank AK026840, SEQ ID NO:78/79”, for which the “XGAL” value is recorded as “L (L = Low blue in 5-7 days)”.

As for “Human genomic region containing hypervariable mini satellites Chromosome 10[10q26.3]: human HRt interacting partner, GenBank AL096810, SEQ ID NO:64/65 (NMKNRMMWRVMTLEKTRVNIIQTHLLCLLLIQMK; listed as Homo sapiens)”, the “XGAL” value is given as “L (L = Low blue in 5-7 days)”.

For “Human hypothetical protein: human HRt interacting partner, GenBank BC006358, SEQ ID NO:34/35”, the “XGAL” value is reported as “M (M = Medium blue in 3-5 days)”. For “Human mRNA for C11ORF25 gene: interacting partner nucleic acid, homology in a 3'-untranslated region, GenBank AJ300461, SEQ ID NO:94 (DNA CTATTCGATGATGAAGATACCCCACCAAACCCA; listed as DNA, chemistry not fully specified; the letters are possibly those of the target site)”, the “XGAL” value is “VL (VL = Very Low blue in 10 days)”. As for “Human pre-B cell colony enhancing factor (PBEF): human HRt interacting partner, GenBank U02020, SEQ ID NO:55”, the “XGAL” value is reported as “L (L = Low blue in 5-7 days)”. With “Human synuclein-beta: human HRt interacting partner, GenBank BC002902, SEQ ID NO:18/19 (FCPTPTATPCRNSPGVTSGGPRPCWARLMEVPQERTRTAWCSTPRLPSRSRSSASVMM; listed as Homo sapiens)”, the “XGAL” value is reported as “M (M = Medium blue in 3-5 days)”. As for “Human tyrosine phosphatase type 1VA, member 2: human HRt interacting partner, GenBank U14603, SEQ ID NO:51/52”, the “XGAL” value was “L (L = Low blue in 5-7 days)”. “Human ubiquitin: human HRt interacting partner, GenBank AR075562, SEQ ID NO:70/71 (EKFAPKKQGDGGKDLPTEAKKRAAEFCRGALC; listed as Homo sapiens)”: the “XGAL” value is on record as “L/VL”. As for “Human ubiquitous receptor UR: human HRt interacting partner, GenBank E11456, SEQ ID NO:1/2”, the entry is “H/M”; as for B1, “H (H = Intense blue within 2-3 days)”.

With B2, the “XGAL” value is “M (M = Medium blue in 3-5 days)”. Turning to B3, the “XGAL” value was “M (M = Medium blue in 3-5 days)”. For the molecule B4, the “XGAL” value is “H (H = Intense blue within 2-3 days)”. Take B5: the “XGAL” value is listed as “M (M = Medium blue in 3-5 days)”.
